The record followed here is paper PMC12377726 (Proceedings of the National Academy of Sciences of the …, 2025).

Numbering of substitutions follows the chain as printed.

B1: G001_gp1_V07_VRC01c_2021-0040 (antibody, V domains shown)
VH: QVQLVQSGAEVKKPGASVKVSCKASGYTFTGYYMHWVRQAPGQGLEWMGWINPNSGGSNYAQKFQGRVTMTRDRSITTAYMELSRLRSDDTAVYYCARDHTGTAGWYFDLWGRGTLVTVSS
VL: EIVLTQSPGTLSLSPGERATLSCRASQSVSSSYLAWYHQKPGQAPRLLIYGASSRATGIPDRFSGSGSGTDFTLTISRLEPEDFAVYYCQQYETFGQGTKVEIT
B2: G001_gp1_V07_VRC01c_111 (antibody, V domains shown)
VH: QVQLVQSGAEVKKPGASVKVSCKASGYTFTGYYMHWVRQAPGQGLEWMGWIYPNSGGTNYVQEFQGRVTMTRDTSISTAYMELSRLRSDDTAVYYCATDNYTTSSMLLRTWGQGTLVTVSS
VL: DIQMTQSPSTLSASVGDRVTITCRASQSISSWLAWYQQKPGKAPKLLIYKASSLESGVPSRFSGSGSGTEFTLTISSLQPDDFATYYCQQYETFGQGTKVEIK
B3: G001_gp1_V07_VRC01c_2021-0033 (antibody, V domains shown)
VH: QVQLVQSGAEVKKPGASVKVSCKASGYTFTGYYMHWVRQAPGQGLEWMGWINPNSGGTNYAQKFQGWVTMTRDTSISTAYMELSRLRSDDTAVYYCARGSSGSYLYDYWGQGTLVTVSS
VL: B2 VL
B4: G001_gp1_V07_VRC01c_2021-0034 (antibody, V domains shown)
VH: QVQLVQSGAEVKKPGASVKVSCKASGYTFSGYYMHWVRQAPGQGLEWMGWINPNSGGTNYAQKFQGGVTMTRDTSISTAYMELSSLRSDDTAVYYCAREGGLGATAFDYWGQGTLVSVSS
VL: B2 VL with V100L
B5: G001_gp1_V07_VRC01c_2021-0031 (antibody, V domains shown)
VH: not shown
VL: DIQMTQSPSSLSASVGDRVTITCQASQDISEYLNWYQQKPGKAPKLLIYDASNLETGVPSRFSGSGSGTDFTFTISSLQPEDVATYYCQQYEFFGGGTKVEIK
B6: G001_gp1_V07_VRC01c_2021-0038 (antibody, V domains shown)
VH: not shown
VL: B5 VL with D28G, E31N, Q38L, Y49S, V83I, E92D, F93Y, G96P, K99T, E101D
B7: G001_gp1_V07_VRC01c_2021-0039 (antibody, V domains shown)
VH: QVQLVQSGAEVKKPGASVRVSCKASGNTFTDYYMHWVRQAPGQGLEWMGWINPNSGGTNYAQKFQGRVTMTRDTSISTAYMELSRLRSDDTAVYYCASPGAAGQPWGFGYWGQGTLVTVSS
VL: B5 VL with E31N, N53H, G66E, D70E, F71C, F73L, V83I
B8: G001_gp1_V07_VRC01c_2021-0037 (antibody, V domains shown)
VH: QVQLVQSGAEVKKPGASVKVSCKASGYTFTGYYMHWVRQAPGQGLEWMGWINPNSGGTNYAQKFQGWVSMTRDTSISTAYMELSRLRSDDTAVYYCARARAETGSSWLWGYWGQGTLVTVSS
VL: B5 VL with E31N, V83I, Q90E, E92D, F93T
B9: G001_gp1_V07_VRC01c_2021-0036 (antibody, V domains shown)
VH: QVQLVQSGAEVKKPGASVKVSCKASGYTFTGYYMHWVRQAPGQGLEWMGWINPNSGGTNYAQKFQDWVTMTRDTSISTAYMEVSRLKSDDTAVYYCARGRAGTTAWWYFDLWGRGALVTVSS
VL: B5 VL with E31N, E92D, F93S, G96P, E101D
B10: G001_gp1_V07_VRC01c_2021-0032 (antibody, V domains shown)
VH: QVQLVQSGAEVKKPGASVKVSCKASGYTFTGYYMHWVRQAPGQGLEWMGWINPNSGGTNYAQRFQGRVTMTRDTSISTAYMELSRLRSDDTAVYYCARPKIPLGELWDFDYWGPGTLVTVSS
VL: EIVMTQSPATLSVSPGERATLSCRASQSVSSNLAWYQQKPGQAPRLLIYGASTRATGIPARFSGSGSGTEFTLTISSLQSEDFAVYYCQQYEFFGPGTKVDIK
B11: G001_gp1_V07_VRC01c_2021-0035 (antibody, V domains shown)
VH: QVQLVQSGAEVKKPGASVKVSCKASGYTFTDYYLHWVRQAPGQGLEWMGWINPNSGGTNYAQKFQDWVTMTRDTSISTAYMELSRLRSDDTAVYYCARDGLAARWDFDSWGQGTLVTVSS
VL: SYELTQPPSVSVAPGQTARITCGGNNIGSKSVHWYQQKPVQAPVLVVYDDGDRPSGIPERFSGSNSGNTATLTISRVEAGDEADYYCQVLEVFGTGTKVTVL

The target of the test is eOD-GT8 (engineered outer domain germline-targeting version 8), monomer (HIV-1 gp120 engineered outer domain, …).
Turning to B1, the binding result is listed as “binds”.

Take B2: the binding result is “binds”.

Turning to B3, the binding result is “binds”. The same measure for B4: “binds”; for B5: “binds”; for B6: “binds”. The result for B7 reads “binds”; that for B8, “binds”.

Take B9: the binding result is on record as “binds”.

For B10, the binding result is given as “binds”.

Consider B11, for which the binding result is “binds”.
